Measured values: publication PMC7490372, “Structural bases of IMiD selectivity that emerges by 5-hydroxythalidomide” (Nature Communications, 2020)

B1: FLAG-GST-SALL4 (wild type) [human] / biotinylated CRBN (wild type) [modified: biotin (added by BirA during cell-free synthesis); biotin (added by BirA during cell-free synthesis)] [human] (parent)
chain 1: MSRRKQAKPQHINSEEDQGEQQPQQQTPEFADAAPAAPAAGELGAPVNHPGNDEVASEDEATVKRLRREETHVCEKCCAEFFSISEFLEHKKNCTKNPPVLIMNDSEGPVPSEDFSGAVLSHQPTSPGSKDCHRENGGSSEDMKEKPDAESVVYLKTETALPPTPQDISYLAKGKVANTNVTLQALRGTKVAVNQRSADALPAPVPGANSIPWVLEQILCLQQQQLQQIQLTEQIRIQVNMWASHALHSSGAGADTLKTLGSHMSQQVSAAVALLSQKAGSQGLSLDALKQAKLPHANIPSATSSLSPGLAPFTLKPDGTRVLPNVMSRLPSALLPQAPGSVLFQSPFSTVALDTSKKGKGKPPNISAVDVKPKDEAALYKHKCKYCSKVFGTDSSLQIHLRSHTGERPFVCSVCGHRFTTKGNLKVHFHRHPQVKANPQLFAEFQDKVAAGNGIPYALSVPDPIDEPSLSLDSKPVLVTTSVGLPQNLSSGTNPKDLTGGSLPGDLQPGPSPESEGGPTLPGVGPNYNSPRAGGFQGSGTPEPGSETLKLQQLVENIDKATTDPNECLICHRVLSCQSSLKMHYRTHTGERPFQCKICGRAFSTKGNLKTHLGVHRTNTSIKTQHSCPICQKKFTNAVMLQQHIRMHMGGQIPNTPLPENPCDFTGSEPMTVGENGSTGAICHDDVIESIDVEEVSSQEAPSSSSKVPTPLPSIHSASPTLGFAMMASLDAPGKVGPAPFNLQRQGSRENGSVESDGLTNDSSSLMGDQEYQSRSPDILETTSFQALSPANSQAESIKSKSPDAGSKAESSENSRTEMEGRSSLPSTFIRAPPTYVKVEVPGTFVGPSTLSPGMTPLLAAQPRRQAKQHGCTRCGKNFSSASALQIHERTHTGEKPFVCNICGRAFTTKGNLKVHYMTHGANNNSARRGRKLAIENTMALLGTDGKRVSEIFPKEILAPSVNVDPVVWNQYTSMLNGGLAVKTNEISVIQSGGVPTLPVSLGATSVVNNATVSKMDGSQSGISADVEKPSATDGVPKHQFPHFLEENKIAVS
chain 2: MAGEGDQQDAAHNMGNHLPLLPAESEEEDEMEVEDQDSKEAKKPNIINFDTSLPTSHTYLGADMEEFHGRTLHDDDSCQVIPVLPQVMMILIPGQTLPLQLFHPQEVSMVRNLIQKDRTFAVLAYSNVQEREAQFGTTAEIYAYREEQDFGIEIVKVKAIGRQRFKVLELRTQSDGIQQAKVQILPECVLPSTMSAVQLESLNKCQIFPSKPVSREDQCSYKWWQKYQKRKFHCANLTSWPRWLYSLYDAETLMDRIKKQLREWDENLKDDSLPSNPIDFSYRVAACLPIDDVLRIQLLKIGSAIQRLRCELDIMNKCTSLCCKQCQETEITTKNEIFSLSLCGPMAAYVNPHGYVHETLTVYKACNLNLIGRPSTEHSWFPGYAWTVAQCKICASHIGWKFTATKKDMSPQKFWGLTRSALLPTIPDTEDEISPDKVILCL
B2: FLAG-GST-IKZF1 (wild type) [not stated] / biotinylated CRBN (wild type) [modified: biotin (added by BirA during cell-free synthesis); biotin (added by BirA during cell-free synthesis)] [human] (parent)
chain 1: MDADEGQDMSQVSGKESPPVSDTPDEGDEPMPIPEDLSTTSGGQQSSKSDRVVASNVKVETQSDEENGRACEMNGEECAEDLRMLDASGEKMNGSHRDQGSSALSGVGGIRLPNGKLKCDICGIICIGPNVLMVHKRSHTGERPFQCNQCGASFTQKGNLLRHIKLHSGEKPFKCHLCNYACRRRDALTGHLRTHSVGKPHKCGYCGRSYKQRSSLEEHKERCHNYLESMGLPGTLYPVIKEETNHSEMAEDLCKIGSERSLVLDRLASNVAKRKSSMPQKFLGDKGLSDTPYDSSASYEKENEMMKSHVMDQAINNAINYLGAESLRPLVQTPPGGSEVVPVISPMYQLHKPLAEGTPRSNHSAQDSAVENLLLLSKAKLVPSEREASPSNSCQDSTDTESNNEEQRSGLIYLTNHIAPHARNGLSLKEEHRAYDLLRAASENSQDALRVVSTSGEQMKVYKCEHCRVLFLDHVMYTIHMGCHGFRDPFECNMCGYHSQDRYEFSSHITRGEHRFHMS
chain 2: B1 chain 2

Variants of: B1
Experiment: AlphaScreen (AS-based interaction assay)
Conditions: with biotinylated CRBN (wild type) [modified: biotin (added by BirA during cell-free synthesis), 5HP, last (highest) point of the titration, Log[5HP (µM)] = 2, signal relative to DMSO = 1, read off a plot

Row | response (Relative AS signal) | Variant
1 | 26 | chain 1 V411A
2 | 43 | chain 1 V411T
3 | 51 | chain 1 V411I
4 | 14 | chain 1 V411L

Same assay, conditions: with biotinylated CRBN (wild type) [modified: biotin (added by BirA during cell-free synthesis), (S)-5HT, last (highest) point of the titration, Log[(S)-5HT (µM)] = 2, signal relative to DMSO = 1, read off a plot

Row | response (Relative AS signal) | Variant
5 | 29 | chain 1 V411A
6 | 47 | chain 1 V411T
7 | 63 | chain 1 V411I
8 | 14 | chain 1 V411L

Same assay, conditions: with biotinylated CRBN (wild type) [modified: biotin (added by BirA during cell-free synthesis), pomalidomide, last (highest) point of the titration, Log[Pom (µM)] = 2, signal relative to DMSO = 1, read off a plot

Row | Variant | response (Relative AS signal)
9 | chain 1 V411A | 52
10 | chain 1 V411H | 22

Next, values leading:

Row | response (Relative AS signal) | Variant
11 | 8 | chain 1 V411K
12 | 37 | chain 1 V411R
13 | 78 | chain 1 V411I
14 | 100 | chain 1 V411Q

Same assay, conditions: with biotinylated CRBN (wild type) [modified: biotin (added by BirA during cell-free synthesis), (S)-thalidomide, last (highest) point of the titration, Log[(S)-Thal (µM)] = 2, signal relative to DMSO = 1, read off a plot

Row | response (Relative AS signal) | Variant
15 | 7 | chain 1 V411K
16 | 14 | chain 1 V411R
17 | 20 | chain 1 V411H
18 | 75 | chain 1 V411I
19 | 100 | chain 1 V411Q

Same assay, conditions: with biotinylated CRBN (wild type) [modified: biotin (added by BirA during cell-free synthesis), (S)-5HT, last (highest) point of the titration, Log[(S)-5HT (µM)] about 2.3, signal relative to DMSO = 1, read off a plot

Row | response (Relative AS signal) | Variant
20 | 4.5 | chain 1 V411Q
21 | 4.5 | chain 1 V411Q R418S

Same assay, conditions: with biotinylated CRBN (wild type) [modified: biotin (added by BirA during cell-free synthesis), (S)-thalidomide, last (highest) point of the titration, Log[(S)-Thal (µM)] about 2.3, signal relative to DMSO = 1, read off a plot

Row | response (Relative AS signal) | Variant
22 | 66 | chain 1 V411Q
23 | 62 | chain 1 V411Q R418S

Variants of: B2
Experiment: AlphaScreen (AS-based interaction assay)
Conditions: with biotinylated CRBN (wild type) [modified: biotin (added by BirA during cell-free synthesis), (S)-5HT, last (highest) point of the titration, Log[(S)-5HT (µM)] about 2.3, signal relative to DMSO = 1, read off a plot

Row | response (Relative AS signal) | Variant
24 | 25 | chain 1 Q146V
25 | 26 | chain 1 Q146V S153R

Same assay, conditions: with biotinylated CRBN (wild type) [modified: biotin (added by BirA during cell-free synthesis), (S)-thalidomide, last (highest) point of the titration, Log[(S)-Thal (µM)] about 2.3, signal relative to DMSO = 1, read off a plot

Row | response (Relative AS signal) | Variant
26 | 28 | chain 1 Q146V
27 | 14 | chain 1 Q146V S153R
